Reference: the supplement of paper PMC7125110
± gives the standard error. Fewer inactive variants are shown than the library holds.

B1: glmS ribozyme (parent)
chain: AUAAAAGCGCCAGAACUACAGAAAUGUAGUUGACGAGGAGGAGGUUUAUCGAAUUUUCGGCGGAUGCCUCCAAA

Assays:
Conditions in all cases: with glucosamine-6-phosphate
glucosamine-6-phosphate [1] = variants of: B1; assay: self-cleavage kobs at 640 uM GlcN6P; higher = faster cleavage; RNA array
In short: (§1)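 The measurements used barcoded ribozyme variants on sequenced MiSeq chips, transcribed in situ by E. coli RNA polymerase and tracked at 37 °C with a hybridised Cy3 probe. Glucosamine-6-phosphate, 40 μM to 10 mM in HEPES/KCl/Mg(OAc)2 buffer, was flowed in while tiles were imaged over ~14 h. Baseline-normalised signals, also normalised to non-cleaving reference variants, gave per-tile medians that were fit to one- or two-exponential decays for kobs. kcat and KM resulted from weighted Michaelis–Menten fits across concentrations.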

glucosamine-6-phosphate [2] = variants of: B1; assay: self-cleavage kobs at 2500 uM GlcN6P; higher = faster cleavage; RNA array
In short: as §1

glucosamine-6-phosphate [3] = variants of: B1; assay: self-cleavage kobs at 10000 uM GlcN6P; higher = faster cleavage; RNA array
In short: as §1

Variant	self-cleavage kobs at 640 uM GlcN6P (glucosamine-6-phosphate [1]) [s⁻¹]	self-cleavage kobs at 2500 uM GlcN6P (glucosamine-6-phosphate [2]) [s⁻¹]	self-cleavage kobs at 10000 uM GlcN6P (glucosamine-6-phosphate [3]) [s⁻¹]
A15G A39C A53U	0.000793 ± 0.00012	0.00236 ± 0.00069	–
A12C U65G C67U	0.000474 ± 0.00016	–	0.00133 ± 0.00031
A14C C34U U54C	< 1e-05	< 1e-05	< 1e-05
C16U A36G A39C	< 1e-05	–	–
A14U A42C A64C	< 1e-05	< 1e-05	< 1e-05
A15C G29C G35A C50A	< 1e-05	< 1e-05	–
G13A C16A C68G	7.67e-05 ± 3.7e-05	–	–
G13U G66C U69G	7.62e-05 ± 2.3e-05	–	–
G13A A48U U54C	< 1e-05	–	–
C16U C34A G37A C68G	0.000275 ± 0.00012	–	–
C16U G38C	< 1e-05	–	–
A14G C34U U54G C58G U69G	0.000551 ± 0.0002	–	–
A12G U46G C58G G63U U69A	0.000158 ± 6.3e-05	–	–
A12U G13U U46G	< 1e-05	–	–
C16U A39G G66A	0.00662 ± 0.0015	–	–
A14C C34G A64G	< 1e-05	< 1e-05	–
G13C G35U A52U	< 1e-05	–	–

Variant	self-cleavage kobs at 640 uM GlcN6P (glucosamine-6-phosphate [1]) [s⁻¹]	self-cleavage kobs at 2500 uM GlcN6P (glucosamine-6-phosphate [2]) [s⁻¹]	self-cleavage kobs at 10000 uM GlcN6P (glucosamine-6-phosphate [3]) [s⁻¹]
G13U U30G A48C	< 1e-05	–	< 1e-05
A14U A15U C68U	8.97e-05 ± 2.4e-05	0.000111 ± 3.2e-05	–
A15U C16A A52U A53C	< 1e-05	< 1e-05	–
A12G U31G U55A C67U	5.14e-05 ± 1.3e-05	0.00011 ± 1.9e-05	0.000176 ± 3.2e-05
C16U A39U A48U	3.71e-05 ± 1.6e-05	7.54e-05 ± 1.5e-05	–
A12G A15G G35A C68G	< 1e-05	–	–
A14U G40C U69C C71U	< 1e-05	–	–
A15G G37U C58A C70A	6.04e-05 ± 1.8e-05	–	–
G13U G32A A36G G38U	< 1e-05	–	–
G13C C50A	< 1e-05	–	< 1e-05
A15G C16G C50G U54C	0.00183 ± 0.00059	–	–
G13C G37U A39U	< 1e-05	< 1e-05	–
A15C A36G U55A	< 1e-05	< 1e-05	–
A15G U49A C58A U69A C70U	0.00014 ± 3.9e-05	–	–
A14G C16U U45A G51U C61G	< 1e-05	–	–
A12G A36G G40A U54G	< 1e-05	–	–
A12U G62U	< 1e-05	–	< 1e-05
